Laboratory results taken from publication PMC10665551.

Legend:
[1] = target: Pichia pastoris recombinant Oo-ASP-1 (Ostertagia ostertagi); assay: reducing and non-reducing SDS-PAGE + LC-MS of tryptic peptides; denaturing SDS-PAGE with and without β-mercaptoethanol; 1D and 2D LC-MS of reduced (DTT/IAA) and non-reduced tryptic digests to map intra- and intermolecular disulphide bridges; disulphide-linked dimer
[2] = target: native Oo-ASP-1 (activation-associated secreted protein 1 of Ostertagia ostertagi) (Ostertagia ostertagi); assay: as above

Substance | stoichiometry N [1] | stoichiometry N [2]
Pichia pastoris recombinant Oo-ASP-1 (natural protein) | 2 | –
native Oo-ASP-1 (activation-associated secreted protein 1 of Ostertagia ostertagi) (natural protein) | – | 2
